For 21 sequences, protein production results are on record in a protein production outcome set (Wang et al. 2014).

This series in a line: label from the status in PepcDB records.
Consider “MNGMGGALRAASGKLNGLLNFARQLAFVKLFGVYLPRNNQFNNATACADLLCKAEVIPGSESHFRPRRQPDASGAASGIAGRQSAGASGARQQSSNEENHDARRHGRRGRVHRDRAFRNRMRGERSARRHRSGIGRLIRRALRSRAAHGIARRRVSRAIAGGVGRGRPGRGHDARGGDAGRRRRDGRAIRAAAGCGHARAGRARAGHAHVGRARVRRHDSRRFVAMGEYGGLAARLGCARRFQHRCAGDAARLVRGCAAGARREPRPHVRADPGDSLSRQSRVARCRARSGLMRVLFAISLLAVAWLAGCTGLRGGIERDARRESNESAALFKRASDGDNSVHALAPVVVDDGLWVSAGAVKLRSGEQLPPLFDEPASFDRAVSSLSEFAEQITRLTQVPTQVAASAQQAAARSQQGGGADGAARSAPVFLDAAGARSTPPLPPGMPGGASAGGGKAGGSGAGPDGGAGTSFAPVRIVYAGGTLRGLLDAACARFGVFWKYEQGTIRFFFTDTRTFQVNAIPGDSSLNASVVSGATSDGTSGGSQSGGSGGGINGASGGTTGLTANNTANTAVNSQLSVFNGLQSAIQSMLSRYGSSVSSPATGSISVTDTPDVLERVAAFMTQQNRSLSRQVLLNVTVLSVSLKAGDAYGIDWSLVYKTMSAGFNITNPFNPVSLTKPADLSATVLSPTSRFNGTKLLIRALSQQGTVRRKTSASVTTLNNQPVPVQVATQTGYLASVSTTNTANVGSSTALTPGVVTTGFNMTLLPHVLDDGTVMLQFSTNISSLLQLKEVSSSTGGRSAARIQTPDVDMRNFLQRVAMKSGETLVISGYEGANDSLDERGVGTPKMIALGGGYEAQRAREVIVILITPVTQRGGA”, for which the protein production entry is “failed”.
The value for “MGDRIAVQAEPTPAKLRGAASGDLVMRKVCMQQWRPTAPRGEYVSTEWSAGYVTDVNYTFGYYGELNPLRCRLPLLTVGRHAPKIENACELGFGQGLSVSIHAAAQPGINWYGTDFNPSQAAFAAEMVRLSGAEAKLYDEAFAEFCNRKDLPDFDFIGLHGIWTWISDQNRHVLVDFIRRKLRPGGVLYISYNTLPGWSSSAPIRHLMKRHADVMGAPGQGVIGQTDAALNFIDQFLALDPLYAKVNPGAVERLKQVKAQDRKYLAHEYMNRDWHPMYFADVENWLGDAKVGFACSAHVLDNLYDLNMTPQQTEFMRDVSDVSLRETIRDFCMNQQFRRDYWVRGVRALIGHEQVAAMREERVVMTVAQADLPTKVRGVIGEATLNDDVYQPLFEILLDHKPHSVLELETHLASKSLHFGQLSSALTILLGLGVITTAAAAQDVSKAKARTLALNKTIARRSLSVGDIAYFASPITGGGITASRFAQLFWLSRQNGGKTAEDWASFAYQVLQGQGQAIIKDGATLQGEDNLTELRAQATHWGAHVLPIWNALGV” was “failed”; that for “MREEKIREALNAHWQASAAGDFDAEHDIYDDDAICDYPQSGERILGRMNLQALRSHHPGKPAGFEVRRIQGEGNLWITEYSISYNGRPAYTVSIMEFRNGKVVHETQYFSDPFEAPGWRSQWVQQIG” was “not failed”.
The same measure for “LDLQIIMDDLLNLLLKEFKLDLAVIRLVDEKGVLRVRSYSGKGIAGIAGKDWEPEIETYIGEAFLSNRLQFVNDTQYMTKPLTRELMQKEGIKSFAHIPISRKGEPPFGILSVFSRTIVGLFNEPFLNLLESLAGQLAQAVKIVTEMEAKEREREEKERILLENARVVKEMEIAKQIQLSLLPSAPPTLPRH”: “failed”.
The value for “MFEASTFLLFMGSAIMLIIIPGPDLVFTITQGMTNGRKAGVITAMGLSLGNIVHTLAAVLGLSLIIQTSVVVFTIFKLAGAMYLFYLAYKALKHRKEEIRVNSEKTNDLKGLFLRGLIMNVLNPKVAIFYLTFLPQFVNYQSANISLQLCILGLIFIIMTAIIFSIFGYFSGTFRDRLLKNSRFNEYMNIAATIIFIGLGLKLMTTQL” was “failed”.
In the case of “MQTESNPLAERFIARNLLDLAIRITLIGGLTVWCYRVAEPFIGMLLWSIILAVTLAPLHMRLTRLLGARPRLAAVVLTLATMLVLLVPGAMLTASLGDSLVNIFHHSTGRIVRIPAPPDFVIELPLIGVRLHEIWLQAMTNLQDVLKPLQPHLATAGRWLLAGMASAGLGIAVFLASIAIAGVILVYADPAKRAAHAIGVRIAGPEQGVALAQLTAATIRAVAQGVIGVALIQAVLAGLGFLLAGVPAAGLWAIVALLICIVQLPLFLLMVPMVVYVFLNNTPTVAAVFAVWCLLVSLCDNVLKPLMLARGVDIPIPVILIGALGGVLAAGIVGLFLGSVGFGLGYVLFMQWVRQQSPAG”, the protein production result is listed as “failed”.
The same measure for “MVYVFQGIGGYIILFLLMIGEGIGLPLPSEVIMPLVGYYSYLGSISLYLGVIVGTLGSLVGSIIAYIIGYKLGLAFLKRYGKYILIDEGKIEALHNWFLRYGNMAVFGFRFIPGLRALISYPAGIGQMKILKFLGFTFLGHTIWDIVLALIGYQLANQINFVITQAEKLGNYLFILVIVIIVIYILWRIFWKRK”: “failed”; for “MVELEKEKIVWIAIILLIIFLVWETLKDLIAPIVFGMAASYIAYPFHIKLSKKVGKRNSVLILSGILSIFSLIFFVGVTLWITDTLKNLYNYLDAFFSWLSTLNVPGFLSSLFDALATSFPEKLRSILLQYTLSLPKLALQLIVFLAVFYATLLNADFLAKEIYELLPLTNRELGEKMIEKVKDTVDAILKTWLFFSVVKGIFLALGFYLFKISNVAGSIAAGVLCIVLELLPVVGGWIMWLAGAIILLRRSMLLAIIFAIYGIITISPIPDYFLKPKFAKERAKVSSVVALVGIFGGWIAFGAVGIILGPIAIGLLLALIDAWREIGTKQPSKAHRSQDA”: “failed”; for “MKVELPQGGYQGLAGDGVVEFRGVPFALPPVGELRFKAPRPLPDSDRSVNADRYPLPSLQVKNPLMGVEDSGEDCLYLNIWVPEGEGPFPVMLWYHGGGYIAGSVSQPLYNGAALAASQKVVVVHAAYRLGAHGFADFATIAPELEADSNLGLRDQVAALEWVNRHIEAFGGRPDRVTLFGESAGGFSVATLMATPRARPLFQAAIVQSGAGDFALAPEEVAKVTSAFVEALPGDGSAADKLRQADPKAWIAAQNQALRTLVKRGLRDTTPQFAMNFQPMVDGDLLPRLPVDAIADGEARDIALMASVCRDEYHFFQYAGPMAGFPSVEELRRFDEAEILRRFQRALPQHGQQALSYYQRTVTPDPQRSNMDWFSAMETDRLFRVPTLRLLDAQAAHRDDTRGLQFTWTSQQFGVPMGACHVIDVPFVFGVTDTPAGMFFTGGGEPARALAAEVQKVWGDFAHGRAVQGPAWKDTRRVRQFGPGDAEAALLDADGEALWADIIPVPGTAKPGQGA”: “not failed”.
The same measure for “MALRVTFVAAARSSPLLAERFDDERPLDQAGWNEALRAAGDLLPLAAAELRYCSPTPRSRATGDAIGCAPLSQLALRACDMGRWRGLTLGEAMAREPAAVDAWLADPRSAPHGGESLLGFITRVGGWLDTRPGEDGDRIVAVAEPSVIRAALVYALKAPPGTYWNLDVRPLSTTTVTGRAGRWSLRFEGTPDQGATRPAFRGGNPL”: “failed”; for “MCGAWFFGARVFEFFTSLFESMKVLKLLPNFLTILRIVLSLFLLFLLLNTRTYFSFLTPFQTNMISSLVFLFAALTDLLDGYIARSYKAKSRFGEIFDPLADKILILSAFLGLVYLDRVNAWIPFVILGREFFISGLRVLAANEKKDIPVNALGKYKTVSQVVAIGALLADVTYSYALVAIAVFLTLYSGIDYTIKYYKS”: “failed”.
The value for “MTAALSSNFLLVAFFLYLAATIFYAVSIMGKKWRNKEGEMKGNRWGTFGYYSAIIALLFALGYFITRWMVAGFAPVSNMFEYVTFFGICIGLAFVIINAIYRSNILGLFTMPTVMLMIAYASVFPSEVAPLIPALQSNWLALHVTTVALGQGILAVSFASGLVYLIRTIDYSIQSWKTFWLEFILYSVITVVGFILITYTFQAMNYEAKFNYVNENDVEATMEYHLPPIVGPHEGQLISETGNQPLVNMPAWIKSDQLNTVIWSFLVGLVLYLLLYLVFRKPVGAILQPIVKRVSPQLVDEISYRAIAIGFPVFTLGGLIFAMIWAQIAWTRFWGWDPKEVWALITFLFYAAYLHLRLSKGWHGERSAWLCVIGFAIIMFNLVFVNLVIAGLHSYAGGM” was “failed”; that for “MEGFSPPINTAQVDAKTKLDEKVDYSNLPCPVLYEELNREATMALKPELFEGFRLDYNKSLNQKFFLSHSILMGPTEVPNPTPSSEIIKIPTANYDFGAGFIDPKLYLIGRITTDGRLNARAKFDLTDNFSVKANALLTDEEDKSQGHLVIDYKGSDYRTQLQLGNNSVYAANYIQHVTPHLSLGGEAFWLGQQLMSGVGYAARYETDKTVASGQIASTGVAVMNYVHKVSEKLSFATDFIYNYLSRDVTASVGYDLITRQSRLRGKVDSNGVVAAYLEEQLPIGLRFLLSAEVDHVKKDYKFGFGVNAF” was “failed”; that for “MKITDISGKIETLVDSLRDMSPTRVRSSFSDEHVSENDDERSSWIALHPSALDMFEQIMRDAEGKQIIMFLDYDGTLSLITEDHDRAYITDEMREVVKEVATYFKTAIISGRSTDKVQSFVKLTGIHYAGSHGMDIKGPTNTDQSNQEEVMFQPASDYLPMIDEVVNVLKEKTKSIPGATVEHNKFCLTVHFRRVDETGWAALAEQVRLVLIDYPKLRLTQGRKVLELRPSIKWDKGKALEFLLNSLGIAESKDVLPVYIGDDRTDEDAFKVLCERGQGFGIIVSKTIKETYASYSLQDPSQVKEFLERLVKWKKQTLGE” was “failed”.
“MNKFELYHPILTEHFALDWLTHSKVRDIFELRHDPEIAKASDRDIDATIEDTTTYVNQMMRLVMNNEALIWGITDQNTHEFLGTFCIWDFDQAQKSASVRFEILRNQQHKGIMSEVLRRMSIFSFEELGLEKLFATALKNNTIARTLLEQVGFSAVASQTDNQNITLELNRH”: the protein production result is “failed”.
The same measure for “MSLSYVLPTLTYSLAASTLGLLQAIPGAFTGFRHTDSDSARGLLLGIFILTVSALLTLAVSAVFWLASFTLFRVLSRYREYAADRGAVAITGDPAALASALATIDDEMAAAPDHDLRAQDGGLDALYIAPIDETQFKDAPDFVANDVFPQTHPPTEARIERLEAMATEGPT”: “failed”.
In the case of “MNEQRLSMRLERVATHVPAGARLADIGSDHGYLPVALLNRGAVSAAVAGEVALTPFYAAERTVRENDLDQQISVRLADGLAAIEPTDRITAISLCGMGGETIRDILESGKARLSGQERLILQPNGGEQPLRVWLMEHNYRILDEEVLRENRFDYEIIVAERTGPMIYTAEQLYFGPIQMQTRSPAFLLKWQRLLGKKHKALSNFARARKAVPEEKMQDLAQQIRWITALLN”, the protein production result is “failed”.
As to “MGHHHHHHSHNQEHQLGNNTLSSHLQIDKMTDNKTGEVLISENVVASIQPAEGSFEGDLKVPRMEEKEALVPIQKATDSFHTELHPRVAFWIIKLPRRRSHQDALE”, the protein production result was “failed”.
The same measure for “MTTLKLFDIEHAWGLPRKVSPRFGARLILRGLHLDYLHDRASFVGEFPPAIKQQFVEAFPAMVKQLERLVATGEIDTTEQHCVSIEHAGFTCEADTLGSHGYLYIAIYQTKAKPLTTSNLTITRLEHHHHHH”: “failed”; for “DMKQLAEDVKLQLYKLLEIPDPDKNWATLAQKLGLGILNNAFRLSPAPSKTLMDNYEVSGGTVRELVEALRQMGYTEAIEVIQAASS”: “not failed”.
The value for “MTQTGSARFEGDSWDLASSVGLTATMVAAARAVAGRAPGALVNDQFAEPLVRAVGVDFFVRMASGELDPDELAEDEANGLRRFADAMAIRTHYFDNFFLDATRAGIRQAVILASGLDSRAYRLRWPAGTIVFEVDQPQVIDFKTTTLAGLGAAPTTDRRTVAVDLRDDWPTALQKAGFDNAQRTAWIAEGLLGYLSAEAQDRLLDQITAQSVPGSQFATEVLRDINRLNEEELRGRMRRLAERFRRHGLDLDMSGLVYFGDRTDARTYLADHGWRTASASTTDLLAEHGLPPIDGDDAPFGEVIYVSAELKQKHQDTR” was “not failed”.
